According to patent US20250340649A1 (RUTGERS THE STATE UNIVERSITY OF NEW JERSEY, published 2025):

B1: E5C1 BiKE (BiKE: HER2/CD16a) (bispecific antibody)
chain: QVQLQESGGGLVQAGGSLRLDCAASGRTLSSYVVGWFRQAPGKEREVVAAIGWSRTSTFYTDSVKGRFTISRDNTENTVYLQMNSLKPGDTAVYYCAADSSPRRWDRESDFGSWGQGTQVTVSSPSGQAGAAASESLFVSNHASQVQLQESGGGLVQAGGSLRLSCAASGRTFRLYRMGWFRQAPGKEREFVGSIKMIDGSTLYGDPVKGRFTISRDNTKFMAYLQMNSLKPEDTAVYYCASVSRVTGSYDSWGQGTQVTVSSWELQGSEQKLISEEDLHHHHHHHHHHHH
notes: Monomer by LC-MS; also called BIKE: CD16a/HER2
B2: C9 (VHH)
VHH: QVQLQESGGGLVQAGGSLRLSCAASGRTVSRYSMGWFRQAPGKEREFVAAIAWFGGWPYYADSVKGRFTISRDNAKNTVYLQMNSLKPEDTAVYYCAARQWARTWDYWGQGTQVTVSS
notes: also called C9 anti-HER2 VHH
B3: F4 anti-HER2 VHH (VHH)
VHH: QVQLQESGGGLVQAGGSLKLSCAASGRTLSAYVVGWFRQAPGKERESVAAIGWSSRSPYYPDSVKGRFTISEDNTKNTVYLQMNSLKPDDTAVYYCAADSYPRRWDRESDFGSWGQGTQVTVSS
B4: E9 anti-HER2 VHH (VHH)
VHH: QVQLQESGGGSVQAGGSLKLSCAASGRTLSAYVVGWFRQAPGRERESVAAIGWSTHSVYYADSVKGRFTISRDNTENTVYLQMNSLKPDDTAVYYCAADSSPRRWDRESDFGSWGQGTQVTVSS
B5: F2 anti-HER2 VHH (VHH)
VHH: QVQLQESGGGLVQAGGSLKLSCAASGRTLSAYVVGWFRQAPGRERESVAAIGWSTHSVYYADSVKGRFTISRDNTENTVYLQMNSLKPDDTAVYYCAADSSPRRWDRESDFGSWGQGTQVTVSS
B6: H7 anti-HER2 VHH (VHH)
VHH: QVQLQESGGGLVQAGGSLRLSCAASGHTLSTYVVAWFRQAPGKERESVAAIGWSTRSPYYADSVKGRFTISEDNTKNTVYLQMNSLKPDDTAVYYCAADSYPRRWDRESDFGSWGQGTQVTVSS
B7: D6 anti-HER2 VHH (VHH)
VHH: QVQLQESGGGLVQAGGSLTLSCAASGRTFSTYVVGWFRQAPGKERESVAAIGWASNSPYYADSVKGRFTISRDNTKNTVYLQMKSLKPDDTAVYYCAADSYPRRWDRESDFGSWGQGTQVTVSS

Columns and labels:
[1] = molecular target: T1, HER2 on the surface of HER2+ cancer cells (BT474, SKOV-3) (human, UniProt P04626 23-1255); assay: flow cytometry, SKOV-3 (HER2+) cells, tenfold dilutions 0.001-1000 nM
T1 construct: whole, on cells; also called human epidermal growth factor receptor 2

[2] = molecular target: T2, CD16a on NK92 (CD16+) cells (human, UniProt P08637 17-254); assay: flow cytometry, fixed haNK92 (CD16+) cells, tenfold dilutions, anti-histag-FITC
T2 construct: whole, on cells; also called NK92 cells (CD16a+); haNK92 cells (CD16a+)
Protocol: First, CD16a+NK92 was harvested and washed once using Dulbecco's phosphate-buffered saline (DPBS) supplemented with 2% FBS (2% DPBS-FBS). Next, all the cells were fixed using 3.7% paraformaldehyde for 20 min at RT, followed by washing twice. […] Following washing three times, the secondary antibody, anti-Histag antibody FITC labeled, was added. After washing, the samples were run on Cytoflex using FL1 channel.

[3] = molecular target: T3, Biotinylated Human Fc gamma RIIIB/CD16b (NA2) Protein, His, Avitag (Acrobiosystems CDB-H82Ea) (human, UniProt O75015 17-200, biotinylated (Avitag)); assay: BLI (Octet), biotinylated CD16b-NA2 on streptavidin sensor, BiKE 1.875-60 nM
T3 construct: NA2 allele; also called CD16-NA2
Protocol: (§1) An Octet® Streptavidin (SA) Biosensor was soaked for at least 10 min in DPBS supplemented with 0.1% Casein, biotinylated CD16a, CD16b-NA1, CD16b-NA2, and HER2 antigens were loaded onto the streptavidin (SA) biosensor until 1 nm shift was reached. Next, the sensor was dipped into the washing buffer (DPBS+0.05% Tween 20+0.1% Casein) for 2 min to reach the baseline. […] Then, in the dissociation step, sensors were dipped into the washing buffer for 5 min to acquire data (Table 5). The data were then analyzed using Octet Data Analysis HT 11.1 software. The sensorgrams were subtracted from the reference and fitted into 1:1 binding model for data analysis. Finally, the affinity and kinetics were analyzed using “Association and Dissociation”.

[4] = molecular target: T4, Biotinylated Human Fc gamma RIIIA/CD16a (F176) Protein, Avitag, His Tag (Acrobiosystems CDA-H82E8) (human, UniProt P08637 17-208, biotinylated (Avitag)); assay: BLI (Octet), biotinylated CD16a on streptavidin sensor, BiKE 1.875-60 nM
T4 construct: also called biotinylated CD16a; CD16a antigen
Protocol: as §1

[5] = molecular target: T5, Biotinylated Human Fc gamma RIIIB/CD16b (NA1) Protein, His, Avitag (Acrobiosystems CDB-H82E4) (human, UniProt O75015 17-200, biotinylated (Avitag)); assay: BLI (Octet), biotinylated CD16b-NA1 on streptavidin sensor, BiKE 1.875-60 nM
T5 construct: NA1 allele; also called CD16b-NAI
Protocol: as §1

[6] = molecular target: T4, Biotinylated Human Fc gamma RIIIA/CD16a …; assay: ELISA, biotinylated CD16a on streptavidin plate, tenfold dilutions 0-1000 nM, anti-cMyc-HRP
Protocol: For ELISA, 50 μL of biotinylated CD16a was added to the streptavidin-coated plate and incubated for 45 min at RT. […] Next, 100 μl anti-cMyc tag HRP conjugated secondary antibody (1:10,000 dilutions) was added. Finally, after washing, the substrate was added for color development, and the plate was read using OD of 450 nm.

[7] = molecular target: T6, Biotinylated Human Her2/ErbB2 Protein, His, Avitag (AcroBiosystem HE2-H82E2) (human, UniProt P04626 23-652, biotinylated (Avitag)); assay: ELISA on HER2, tenfold dilutions 0-1000 nM; the HER2 form is not stated for this ELISA, Table 17 lists only the biotinylated HER2
T6 construct: Bought protein; Loaded on streptavidin sensors for BLI; also called biotinylated HER2; HER2 antigen

HER1 = molecular target: T7, HER1 (human, UniProt P00533 25-645); assay: ELISA, periplasmic extract on coated antigen, anti-HA-HRP
T7 construct: The text says only 'HER1'; also called Recombinant human EGFR protein (Fc Chimera), Abcam ab155726; Fc part of the bought chimera not given
Text: (§2) FIGS. 4A-4B. FIG. 4A) PBMCs were isolated using Ficoll-Paque method. Then, the RNAs were extracted, cDNA library was generated, genes amplified, and then cloned into pMECS-GG phagemids. The phagemids were used in phage display and the screened candidates were used to infect TG1 bacteria. Colonies were selected, grown, lysed, and the lysates removed. FIG. 4B) The lysates were then used in ELISA to screen for VHHs with the highest affinity to HER2 and with negligible binding to HER1, HER3, and HER4. Bovine serum albumin (BSA) and skim milk were used as controls.
(§3) The next day, each well was washed three times with washing buffer (DPBS+0.1% Tween 20) and then incubated with blocking buffer (2% skimmed milk) for 2 h at RT to block the free binding sites. Next, blocking buffer was replaced with 100 μL of periplasmic extract from above and incubated for 1 h at RT while shaking at 700 rpm. Each well was washed six times with washing buffer (DPBS+0.1% Tween 20) followed by addition of 100 μL HRP Anti-HA tag antibody (1:10000 dilution) and incubation for 1 h at RT while shaking at 700 rpm. Each well was washed again six times, followed by addition of 50 μL 1-Step™ Turbo TMB-ELISA substrate solution at incubation at RT for 15 min (without shaking and at dark). The reaction was stopped by adding 50 μL of stop solution ([…] sulfuric acid) and the plate was read at 450 nm using 630 nm as a reference (450/630 nm).

HER3 = molecular target: T8, HER3 (human, UniProt P21860 20-643, limits assumed); assay: as above
T8 construct: also called Recombinant Human ErbB 3 protein, Abcam ab196072
Text: as §2, §3

[8] = molecular target: T9, HER2 protein (coated on ELISA plate) (human, UniProt P04626 23-652, limits assumed); assay: as above
T9 construct: also called HER2 antigen
Text: as §2, §3

Bovine serum albumin = molecular target: T10, Bovine serum albumin (bovine, UniProt P02769 25-607); assay: as above
T10 construct: Control antigen; also called BSA
Text: as §2, §3

[9] = molecular target: T1, HER2 on the surface of HER2+ cancer …; assay: flow cytometry on BT-474 cells (HER2+), 100 nM binding sites
Protocol: (§4) OVASC-1 is an ascites-derived epithelial ovarian cancer cells obtained from a patient with advanced metastatic disease (11, 12). The expressed VHHs were then incubated with HER2⁺ (BT474, JIMT-1, and SKOV-3) and HER2⁻ (MDA-MB-231) cancer cell lines. Approximately 10⁶ cells were counted and washed using DPBS-1% FBS. […] After washing, FITC-conjugated anti-Human IgG or anti-Histag antibody were added and incubated on ice for 60 min. Cells were washed three times and then analyzed using Beckman-Coulter Gallios flow cytometer at Rutgers Flow cytometry core facility.
(§5) In the next step, the ability of the VHHs to recognize and bind to HER2 on the surface of HER2+ cancer cells was evaluated. […] MDA-MB-231 and OVASC-1 (HER2⁻) cancer cells were used as negative controls.

[10] = molecular target: T1, HER2 on the surface of HER2+ cancer …; assay: flow cytometry on SKOV-3 cells (HER2+), 100 nM binding sites
Protocol: as §4, §5

T10 sequence (P02769 25-607 limits assumed): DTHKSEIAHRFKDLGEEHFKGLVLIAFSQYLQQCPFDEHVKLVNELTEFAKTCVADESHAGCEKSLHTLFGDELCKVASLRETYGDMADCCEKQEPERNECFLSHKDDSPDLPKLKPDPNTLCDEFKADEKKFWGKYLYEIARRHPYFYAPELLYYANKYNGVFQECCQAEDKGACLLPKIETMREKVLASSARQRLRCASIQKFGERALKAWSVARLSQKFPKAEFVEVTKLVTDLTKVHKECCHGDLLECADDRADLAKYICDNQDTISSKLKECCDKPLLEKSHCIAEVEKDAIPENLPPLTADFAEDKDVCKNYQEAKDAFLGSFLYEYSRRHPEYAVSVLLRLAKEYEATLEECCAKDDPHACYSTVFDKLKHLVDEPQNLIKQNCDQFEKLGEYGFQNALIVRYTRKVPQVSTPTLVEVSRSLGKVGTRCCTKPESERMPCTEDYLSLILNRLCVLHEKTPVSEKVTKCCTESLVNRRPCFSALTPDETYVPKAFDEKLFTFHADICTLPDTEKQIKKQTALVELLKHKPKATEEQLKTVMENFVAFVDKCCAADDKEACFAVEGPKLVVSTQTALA
T5 sequence (O75015 other isoform, or with tags, fused parts or gaps limits assumed): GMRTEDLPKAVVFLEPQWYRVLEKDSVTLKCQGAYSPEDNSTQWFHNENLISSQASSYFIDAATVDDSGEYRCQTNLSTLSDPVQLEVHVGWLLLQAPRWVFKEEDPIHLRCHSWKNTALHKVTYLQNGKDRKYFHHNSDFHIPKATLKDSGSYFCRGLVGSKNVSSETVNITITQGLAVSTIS
T3 sequence (O75015 17-200 N65S limits assumed): as the sequence (O75015 other isoform, or with tags, fused parts or gaps limits assumed) above, with R20S, N49S, D66N, V90I counted along it
T4 sequence (P08637 17-208 limits assumed): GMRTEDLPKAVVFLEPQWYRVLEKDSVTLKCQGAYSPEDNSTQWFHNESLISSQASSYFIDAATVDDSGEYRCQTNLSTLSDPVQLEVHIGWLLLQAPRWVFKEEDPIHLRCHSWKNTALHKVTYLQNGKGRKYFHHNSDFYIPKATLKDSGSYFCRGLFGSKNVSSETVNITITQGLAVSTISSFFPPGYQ
T2 sequence (P08637 17-254 F176V): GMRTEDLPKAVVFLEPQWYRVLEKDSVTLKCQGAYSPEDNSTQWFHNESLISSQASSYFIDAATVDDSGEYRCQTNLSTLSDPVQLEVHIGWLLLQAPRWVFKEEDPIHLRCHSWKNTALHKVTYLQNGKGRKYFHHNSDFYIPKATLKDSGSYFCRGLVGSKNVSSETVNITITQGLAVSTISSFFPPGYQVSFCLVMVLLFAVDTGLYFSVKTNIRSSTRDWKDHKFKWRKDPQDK

Binder	binding result (HER1)	binding result (HER3)	binding result (Bovine serum albumin)	FITC+ (%) [9]	FITC- (%) [9]	Mean (MFI) [9]	FITC+ (%) [10]	FITC- (%) [10]	Mean (MFI) [10]	further results
B1	–	–	–	–	–	–	–	–	–	EC50 (read off the curve) [1]: ~1 nM; EC50 (read off the curve) [2]: ~1 nM; Kd [3]: 6.71 nM; koff [3]: 0.000946 s⁻¹; kon [3]: 140000 M⁻¹ s⁻¹; Kd [4]: 2.7 nM; koff [4]: 0.00051 s⁻¹; kon [4]: 189000 M⁻¹ s⁻¹; Kd [5]: 1730 nM; koff [5]: 0.0743 s⁻¹; kon [5]: 42900 M⁻¹ s⁻¹; EC50 (read off the curve) [6]: ~0.3 nM; EC50 (read off the curve) [7]: ~0.4 nM
B2	no binding (tested: extract, conc. not given)	no binding (tested: extract, conc. not given)	no binding (tested: extract, conc. not given)	–	–	–	–	–	–	binding result [8]: binds
B3	no binding (tested: extract, conc. not given)	no binding (tested: extract, conc. not given)	no binding (tested: extract, conc. not given)	98.5%	1.45%	99500	93.3%	6.51%	86400	–
B4	no binding (tested: extract, conc. not given)	no binding (tested: extract, conc. not given)	no binding (tested: extract, conc. not given)	98.2%	1.85%	97900	93.1%	6.76%	88100	–
B5	no binding (tested: extract, conc. not given)	no binding (tested: extract, conc. not given)	no binding (tested: extract, conc. not given)	98.6%	1.42%	99500	93.1%	6.68%	100000	–
B6	no binding (tested: extract, conc. not given)	no binding (tested: extract, conc. not given)	no binding (tested: extract, conc. not given)	98.3%	1.72%	100000	94.8%	5.02%	99900	–
B7	no binding (tested: extract, conc. not given)	no binding (tested: extract, conc. not given)	no binding (tested: extract, conc. not given)	98.1%	1.86%	96100	94.6%	5.24%	89400	–
